From publication PMC11417379

Tested on: pTERF1 (Clostridia bacterium (ruminant gut metagenome))
Experiment: BLI
Settings: BLI: PBS, 0.02% Tween, pH 7.4, 25 C, 1:1 global fit; EMSA: 40 nM probe, room temperature 30 min, 6% native PAGE, buffer not stated

## pTERF1 motif probe
  Kd: 1.87 nM
